# Numbering of substitutions follows the chain as printed. In names and notes the source's numbering stands.
# B1: wild type (WT) human βB2-crystallin (natural protein, UniProt P43320 1-205, looked up)
# chain: MASDHQTQAGKPQSLNPKIIIFEQENFQGHSHELNGPCPNLKETGVEKAGSVLVQAGPWVGYEQANCKGEQFVFEKGEYPRWDSWTSSRRTDSLSSLRPIKVDSQEHKIILYENPNFTGKKMEIIDDDVPSFHAHGYQEKVSSVRVQSGTWVGYQYPGYRGLQYLLEKGDYKDSSDFGAPHPQVQSVRRIRDMQWHQRGAFHPSN
# notes: Cloned BamHI/HindIII into pET28a; Oligomeric state depends on concentration (dimer at 0.2 mg/ml, dimer and tetramer at higher concentrations); also called WT βB2-crystallin; BB2; source: E. coli Rosetta (DE3), pET28a, purified (Ni-NTA, Superdex 200)
# B2: A2V mutated βB2-crystallin (natural protein, human, UniProt P43320 1-205, looked up)
# chain: B1 chain with A2V
# notes: human βB2-crystallin with the congenital cataract-linked A2V mutation, made by site-directed mutagenesis with primers from the start codon to the stop codon; Same vector and tag as m1; also called A2V mutant; source: E. coli Rosetta (DE3), pET28a, purified (Ni-NTA, Superdex 200)
# B3: βA3-crystallin (natural protein, UniProt P05813 1-215, looked up)
# chain: METQAEQQELETLPTTKMAQTNPTPGSLGPWKITIYDQENFQGKRMEFTSSCPNVSERSFDNVRSLKVESGAWIGYEHTSFCGQQFILERGEYPRWDAWSGSNAYHIERLMSFRPICSANHKESKMTIFEKENFIGRQWEISDDYPSLQAMGWFNNEVGSMKIQSGAWVCYQYPGYRGYQYILECDHHGGDYKHWREWGSHAQTSQIQSIRRIQQ
# notes: βA3-crystallin; also called BA3/BA1
# Key:
# [1] = molecular target: the molecule itself; experiment: SEC; Superdex 200HR 10/300GL, protein concentration raised above 0.2 up to 4 mg/ml, buffer A, equilibrated 2 h at 4°C, run at 16°C; tetramer to dimers
# [2] = molecular target: the molecule itself; experiment: SEC; Superdex 200HR 10/300GL, protein at 0.2 mg/ml, buffer A (20 mM sodium phosphate, 100 mM NaCl, 1 mM DTT, 1 mM EDTA, pH 7.2), equilibrated 2 h at 4°C, run at 16°C; dimer
# [3] = molecular target: the molecule itself; experiment: SEC; βA3-crystallin alone, run beside the mixtures of Figure 5A; concentration not given
Protein,stoichiometry N [1],stoichiometry N [2],stoichiometry N [3]
B1,4,2,
B2,4,2,
B3,,,2

# Reference: publication PMC3516508 (PLoS ONE, 2012)
